Measurements reported in patent US20080182978A1, “ANTI-NGF ANTIBODIES AND METHODS USING SAME” (RINAT NEUROSCIENCE CORP, priority 2002, published 2008).
“Also recorded” adds a separate entry of the source.

Target: T1, NT3 (Homo sapiens, UniProt P20783)
T1 sequence (P20783 139-257): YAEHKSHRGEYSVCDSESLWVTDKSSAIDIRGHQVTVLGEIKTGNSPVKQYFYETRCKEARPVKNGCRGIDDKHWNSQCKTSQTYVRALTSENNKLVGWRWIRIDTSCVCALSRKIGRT
Experiment: Mouse E17/18 trigeminal neuron survival assay, NT3
Assay type: cell-based
Conditions: saturating NT3; antibody up to 200 nM; 48 hours
Method: The ability of antibody E3 to specifically block NGF activity was evaluated by measurement of the capacity of the antibody to inhibit survival of mouse E17/18 trigeminal neurons in vitro in the presence of saturating concentrations of NGF, the NGF-related neurotrophin NT3, or the NGF-unrelated neurotrophic factor, macrophage stimulating protein (MSP). The survival of mouse E17/18 trigeminal neurons is a sensitive assay to evaluate the NGF-blocking activity of anti-NGF antagonist antibodies because NGF is required to support survival of these neurons at higher concentrations than the level of NGF required to support survival of E13.5 TG neurons).
The survival assay was conducted as follows: time mated pregnant Swiss Webster female mice were euthanised by CO2 inhalation. The uterine horns were removed and the embryos (at embryonic day 17 or 18) were extracted and decapitated. The trigeminal and nodose ganglia were dissected and cleaned. The ganglia were then trypsinised, mechanically dissociated and plated at a density of 100-300 cells per well in defined, serum-free medium in 4-well plates (Greiner) coated with poly-L-ornithine and laminin.
E17/18 trigeminal neurons were grown either without added neurotrophic factors (negative control) or in the presence of saturating concentrations of human NGF (400 pM and 15 pM) (positive control); NT3 (400 pM); or MSP (600 pM). […]

B1: E3: humanized, affinity matured anti-NGF antagonist antibody; variable regions SEQ ID NO:1 and 2; human IgG2a (A330P331 to S330S331), kappa (antibody, V domains shown)
VH: QVQLQESGPGLVKPSETLSLTCTVSGFSLIGYDLNWIRQPPGKGLEWIGIIWGDGTTDYNSAVKSRVTISKDTSKNQFSLKLSSVTAADTAVYYCARGGYWYATSYYFDYWGQGTLVTVS
VL: DIQMTQSPSSLSASVGDRVTITCRASQSISNNLNWYQQKPGKAPKLLIYYTSRFHSGVPSRFSGSGSGTDFTFTISSLQPEDIATYYCQQEHTLPYTFGQGTKLEIKRT
modifications: human IgG2a constant (A330S/P331S) and kappa constant missing
  survival of E17/18 trigeminal neurons promoted by NT3: had no effect; also recorded: did not inhibit
